In paper PMC10564799:
Where “and” joins values, the source holds several entries; their conditions need not be identical. Equal entries are not always repeated.

Target: SFTSV glycoprotein Gc (SFTSV (Dabie bandavirus), strain JA1-2018)
Assay: cryo-EM structure

For SFTSV glycoprotein Gc (natural protein), the stoichiometry N was 5 and 6.
